B1: AMOTL2 peptide 64-79 (Angiomotin-like protein 2), 16-mer library wild type / TNKS ANK (TNKS 12 ANK repeats, residues 174-649) (parent complex)
chain 1: QVLQQATRQEPQGQEH
chain 2: TGVPAVSGALRELLEACRNGDVSRVKRLVDAANVNAKDMAGRKSSPLHFAAGFGRKDVVEHLLQMGANVHARDDGGLIPLHNACSFGHAEVVSLLLCQGADPNARDNWNYTPLHEAAIKGKIDVCIVLLQHGADPNIRNTDGKSALDLADPSAKAVLTGEYKKDELLEAARSGNEEKLMALLTPLNVNCHASDGRKSTPLHLAAGYNRVRIVQLLLQHGADVHAKDKGGLVPLHNACSYGHYEVTELLLKHGACVNAMDLWQFTPLHEAASKNRVEVCSLLLSHGADPTLVNCHGKSAVDMAPTPELRERLTYEFKGHSLLQAAREADLAKVKKTLALEIINFKQPQSHETALHCAVASLHPKRKQVTELLLRKGANVNEKNKDFMTPLHVAAERAHNDVMEVLHKHGAKMNALDTLGQTALHRAALAGHLQTCRLLLSYGSDPSIISLQGFTAAQMGNEAVQQILSESTPIRTSD

Variants of B1 are the subject of this assay. Nature of the assay: proteomic peptide phage display deep mutational scan (ProP-PD DMS): M13 P8 16-mer library selected against immobilised GST-tagged bait for four days (rounds), NGS of the eluted pools per day and pseudo-replica; bait immobilised on MaxiSorp plates (10 µg), library pre-cleared on GST, 2 h binding at 4 °C, five washes; one round per day, days 1-4; value from days 2 and 3.
As for chain 1 QVLQQATRQEPQGQIH [chain 1 E15I], the screen value is 9.73e-05 average fractional NGS count over selection days 2 and 3 (reads of this peptide / all reads for the bait, averaged over ….
The same measure for chain 1 QVLQQATRQEPQGQDH [chain 1 E15D]: 0.000568 average fractional NGS count over selection days 2 and 3 (reads of this peptide / all reads for the bait, averaged over …; for chain 1 QVLQQATRQEPQGQHH [chain 1 E15H]: 0.000392 average fractional NGS count over selection days 2 and 3 (reads of this peptide / all reads for the bait, averaged over …; for chain 1 QVLQQATRQEPQGQWH [chain 1 E15W]: 0.00103 average fractional NGS count over selection days 2 and 3 (reads of this peptide / all reads for the bait, averaged over ….
In the case of chain 1 QVLQQATRQEPQGQPH [chain 1 E15P], the screen value is 0.000133 average fractional NGS count over selection days 2 and 3 (reads of this peptide / all reads for the bait, averaged over ….
As for chain 1 QVLQQAFRQEPQGQEH [chain 1 T7F], the figure is 0.000844 average fractional NGS count over selection days 2 and 3 (reads of this peptide / all reads for the bait, averaged over …; as for chain 1 QVLQQAQRQEPQGQEH [chain 1 T7Q], 0.000226 average fractional NGS count over selection days 2 and 3 (reads of this peptide / all reads for the bait, averaged over …; as for chain 1 QVLQQASRQEPQGQEH [chain 1 T7S], 0.000189 average fractional NGS count over selection days 2 and 3 (reads of this peptide / all reads for the bait, averaged over ….
Regarding chain 1 QVLGQATRQEPQGQEH [chain 1 Q4G], the screen value is 0.000278 average fractional NGS count over selection days 2 and 3 (reads of this peptide / all reads for the bait, averaged over ….
As for chain 1 QVLYQATRQEPQGQEH [chain 1 Q4Y], the figure is 0.00141 average fractional NGS count over selection days 2 and 3 (reads of this peptide / all reads for the bait, averaged over …; as for chain 1 QVLRQATRQEPQGQEH [chain 1 Q4R], 0.000203 average fractional NGS count over selection days 2 and 3 (reads of this peptide / all reads for the bait, averaged over ….
As for chain 1 QVLEQATRQEPQGQEH [chain 1 Q4E], the figure is 0.000127 average fractional NGS count over selection days 2 and 3 (reads of this peptide / all reads for the bait, averaged over …; as for chain 1 QVLTQATRQEPQGQEH [chain 1 Q4T], 0.0012 average fractional NGS count over selection days 2 and 3 (reads of this peptide / all reads for the bait, averaged over ….
Regarding chain 1 QVLMQATRQEPQGQEH [chain 1 Q4M], the screen value is 0.000805 average fractional NGS count over selection days 2 and 3 (reads of this peptide / all reads for the bait, averaged over ….
The same measure for chain 1 QVLWQATRQEPQGQEH [chain 1 Q4W]: 0.000181 average fractional NGS count over selection days 2 and 3 (reads of this peptide / all reads for the bait, averaged over ….
Consider chain 1 QVLAQATRQEPQGQEH [chain 1 Q4A], for which the screen value is 0.00355 average fractional NGS count over selection days 2 and 3 (reads of this peptide / all reads for the bait, averaged over ….
For chain 1 QVLQQATRQEPHGQEH [chain 1 Q12H], the screen value is 0.000111 average fractional NGS count over selection days 2 and 3 (reads of this peptide / all reads for the bait, averaged over ….
As for chain 1 QVLQQATRQEPWGQEH [chain 1 Q12W], the figure is 0.000556 average fractional NGS count over selection days 2 and 3 (reads of this peptide / all reads for the bait, averaged over …; as for chain 1 QVLQQATRQEPAGQEH [chain 1 Q12A], 0.00119 average fractional NGS count over selection days 2 and 3 (reads of this peptide / all reads for the bait, averaged over ….
In the case of chain 1 QVLQQATRQEPFGQEH [chain 1 Q12F], the screen value is 0.00125 average fractional NGS count over selection days 2 and 3 (reads of this peptide / all reads for the bait, averaged over ….
For chain 1 QVLQQATRQEPPGQEH [chain 1 Q12P], the screen value is 0.000174 average fractional NGS count over selection days 2 and 3 (reads of this peptide / all reads for the bait, averaged over ….
The same measure for chain 1 QVLQQATRQEAQGQEH [chain 1 P11A]: 0.000173 average fractional NGS count over selection days 2 and 3 (reads of this peptide / all reads for the bait, averaged over ….
chain 1 QVLQQATRQETQGQEH [chain 1 P11T]: the screen value was 0.00762 average fractional NGS count over selection days 2 and 3 (reads of this peptide / all reads for the bait, averaged over ….
The same measure for chain 1 QVLQQATRQEVQGQEH [chain 1 P11V]: 0.000173 average fractional NGS count over selection days 2 and 3 (reads of this peptide / all reads for the bait, averaged over …; for chain 1 QVLQQATRQEPQGAEH [chain 1 Q14A]: 0.0303 average fractional NGS count over selection days 2 and 3 (reads of this peptide / all reads for the bait, averaged over ….
Regarding chain 1 QVLQQATRQEPQGMEH [chain 1 Q14M], the screen value is 0.000951 average fractional NGS count over selection days 2 and 3 (reads of this peptide / all reads for the bait, averaged over ….
As for chain 1 QVLQQATRQEPQGYEH [chain 1 Q14Y], the figure is 0.000143 average fractional NGS count over selection days 2 and 3 (reads of this peptide / all reads for the bait, averaged over …; as for chain 1 QVLQQATRQEPQGVEH [chain 1 Q14V], 0.000381 average fractional NGS count over selection days 2 and 3 (reads of this peptide / all reads for the bait, averaged over ….
The same measure for chain 1 QVLQQDTRQEPQGQEH [chain 1 A6D]: 0.000263 average fractional NGS count over selection days 2 and 3 (reads of this peptide / all reads for the bait, averaged over …; for chain 1 QVLQQSTRQEPQGQEH [chain 1 A6S]: 0.000255 average fractional NGS count over selection days 2 and 3 (reads of this peptide / all reads for the bait, averaged over ….
As for chain 1 QVLQQTTRQEPQGQEH [chain 1 A6T], the figure is 0.000175 average fractional NGS count over selection days 2 and 3 (reads of this peptide / all reads for the bait, averaged over ….
With chain 1 QVLQQNTRQEPQGQEH [chain 1 A6N], the screen value was 0.000341 average fractional NGS count over selection days 2 and 3 (reads of this peptide / all reads for the bait, averaged over ….
The same measure for chain 1 QVLQQQTRQEPQGQEH [chain 1 A6Q]: 0.00606 average fractional NGS count over selection days 2 and 3 (reads of this peptide / all reads for the bait, averaged over …; for chain 1 QVLQQETRQEPQGQEH [chain 1 A6E]: 0.000304 average fractional NGS count over selection days 2 and 3 (reads of this peptide / all reads for the bait, averaged over ….
As for chain 1 QVLQQFTRQEPQGQEH [chain 1 A6F], the figure is 0.00286 average fractional NGS count over selection days 2 and 3 (reads of this peptide / all reads for the bait, averaged over …; as for chain 1 QVLQQLTRQEPQGQEH [chain 1 A6L], 0.000992 average fractional NGS count over selection days 2 and 3 (reads of this peptide / all reads for the bait, averaged over ….
As to chain 1 QVLQQMTRQEPQGQEH [chain 1 A6M], the screen value is 0.000267 average fractional NGS count over selection days 2 and 3 (reads of this peptide / all reads for the bait, averaged over ….
With chain 1 QVLQHATRQEPQGQEH [chain 1 Q5H], the screen value was 0.0129 average fractional NGS count over selection days 2 and 3 (reads of this peptide / all reads for the bait, averaged over ….
The same measure for chain 1 QVLQYATRQEPQGQEH [chain 1 Q5Y]: 0.000959 average fractional NGS count over selection days 2 and 3 (reads of this peptide / all reads for the bait, averaged over …; for chain 1 QVLQMATRQEPQGQEH [chain 1 Q5M]: 0.000456 average fractional NGS count over selection days 2 and 3 (reads of this peptide / all reads for the bait, averaged over …; for chain 1 QVLQAATRQEPQGQEH [chain 1 Q5A]: 0.000657 average fractional NGS count over selection days 2 and 3 (reads of this peptide / all reads for the bait, averaged over ….
As for chain 1 QVLQTATRQEPQGQEH [chain 1 Q5T], the screen value was 0.00669 average fractional NGS count over selection days 2 and 3 (reads of this peptide / all reads for the bait, averaged over ….
chain 1 QVLQIATRQEPQGQEH [chain 1 Q5I]: the screen value is 0.00183 average fractional NGS count over selection days 2 and 3 (reads of this peptide / all reads for the bait, averaged over ….
As for chain 1 QVLQPATRQEPQGQEH [chain 1 Q5P], the figure is 0.000503 average fractional NGS count over selection days 2 and 3 (reads of this peptide / all reads for the bait, averaged over …; as for chain 1 QVLQLATRQEPQGQEH [chain 1 Q5L], 0.00018 average fractional NGS count over selection days 2 and 3 (reads of this peptide / all reads for the bait, averaged over …; as for chain 1 QVLQRATRQEPQGQEH [chain 1 Q5R], 0.000183 average fractional NGS count over selection days 2 and 3 (reads of this peptide / all reads for the bait, averaged over ….
With chain 1 QVLQQATRQEPQGQEI [chain 1 H16I], the screen value was 0.000704 average fractional NGS count over selection days 2 and 3 (reads of this peptide / all reads for the bait, averaged over ….
Turning to chain 1 QVLQQATRQEPQGQEN [chain 1 H16N], the screen value was 0.00139 average fractional NGS count over selection days 2 and 3 (reads of this peptide / all reads for the bait, averaged over ….
Consider chain 1 QVLQQATRQEPQGQER [chain 1 H16R], for which the screen value is 0.00349 average fractional NGS count over selection days 2 and 3 (reads of this peptide / all reads for the bait, averaged over ….
The same measure for chain 1 QVLQQATRQEPQGQEY [chain 1 H16Y]: 0.00033 average fractional NGS count over selection days 2 and 3 (reads of this peptide / all reads for the bait, averaged over …; for chain 1 QVLQQATRQEPQGQEQ [chain 1 H16Q]: 0.000195 average fractional NGS count over selection days 2 and 3 (reads of this peptide / all reads for the bait, averaged over ….
chain 1 QVLQQATRQEPQGQEM [chain 1 H16M]: the screen value was 0.0005 average fractional NGS count over selection days 2 and 3 (reads of this peptide / all reads for the bait, averaged over ….
The same measure for chain 1 QVGQQATRQEPQGQEH [chain 1 L3G]: 0.000399 average fractional NGS count over selection days 2 and 3 (reads of this peptide / all reads for the bait, averaged over …; for chain 1 QVYQQATRQEPQGQEH [chain 1 L3Y]: 0.000502 average fractional NGS count over selection days 2 and 3 (reads of this peptide / all reads for the bait, averaged over …; for chain 1 QVNQQATRQEPQGQEH [chain 1 L3N]: 0.00173 average fractional NGS count over selection days 2 and 3 (reads of this peptide / all reads for the bait, averaged over ….
chain 1 QVRQQATRQEPQGQEH [chain 1 L3R]: the screen value is 0.000319 average fractional NGS count over selection days 2 and 3 (reads of this peptide / all reads for the bait, averaged over ….
The same measure for chain 1 QVVQQATRQEPQGQEH [chain 1 L3V]: 0.00036 average fractional NGS count over selection days 2 and 3 (reads of this peptide / all reads for the bait, averaged over …; for chain 1 QVHQQATRQEPQGQEH [chain 1 L3H]: 0.00318 average fractional NGS count over selection days 2 and 3 (reads of this peptide / all reads for the bait, averaged over ….
As for chain 1 QVEQQATRQEPQGQEH [chain 1 L3E], the figure is 0.00384 average fractional NGS count over selection days 2 and 3 (reads of this peptide / all reads for the bait, averaged over …; as for chain 1 QVSQQATRQEPQGQEH [chain 1 L3S], 0.000145 average fractional NGS count over selection days 2 and 3 (reads of this peptide / all reads for the bait, averaged over ….

The values are drawn from PMC12102759 (2025).
